Results: US20050282743A1, “Molecular interactions in cells” (Arbor Vita Corporation, priority 2001, published 2005)

What was measured:
[1] = molecular target: T1, GST-KIAA0807(S) PDZ domain 1 (Homo sapiens (Human)), Q6P0Q8; assay: G assay titration, PDZ 0.5 ug/ml
T1 chain: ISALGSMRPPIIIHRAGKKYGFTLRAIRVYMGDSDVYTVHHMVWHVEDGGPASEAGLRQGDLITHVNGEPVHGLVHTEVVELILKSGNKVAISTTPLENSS

[2] = molecular target: T2, GST-PTPL1 PDZ domain 2 (Homo sapiens (Human)), Q12923; assay: G assay titration, PDZ 1 ug/ml
T2 chain: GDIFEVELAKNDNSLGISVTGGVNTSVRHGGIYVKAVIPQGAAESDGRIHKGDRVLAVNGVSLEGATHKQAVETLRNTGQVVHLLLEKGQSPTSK

[3] = molecular target: T3, GST-Shank 1 PDZ domain 1 (Homo sapiens (Human)), Q9UPX8; assay: G assay titration, PDZ 5 ug/ml
T3 chain: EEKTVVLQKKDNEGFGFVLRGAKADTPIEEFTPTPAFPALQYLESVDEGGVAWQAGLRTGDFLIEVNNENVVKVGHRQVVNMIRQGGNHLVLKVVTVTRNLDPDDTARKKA

[4] = molecular target: T4, GST-MINT1 PDZ domains 1, 2, Q02410; assay: G' assay; note: key of the grades not given here
T4 chain: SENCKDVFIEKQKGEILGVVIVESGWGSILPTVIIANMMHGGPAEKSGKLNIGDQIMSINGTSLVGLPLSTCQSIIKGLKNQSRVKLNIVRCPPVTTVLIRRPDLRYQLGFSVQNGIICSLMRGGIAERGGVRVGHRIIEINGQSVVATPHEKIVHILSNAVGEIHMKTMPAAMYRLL

[5] = molecular target: T5, GST-GRIP 1 PDZ domain 3 (Homo sapiens (Human)), Q9Y3R0; assay: G' assay; note: key of the grades not given here
T5 chain: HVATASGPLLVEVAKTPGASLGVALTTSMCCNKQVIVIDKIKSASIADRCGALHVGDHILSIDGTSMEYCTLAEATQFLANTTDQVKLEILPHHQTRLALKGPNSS

[6] = molecular target: T3, GST-Shank 1 PDZ domain 1 (Homo sapiens …); assay: G' assay; note: key of the grades not given here
[7] = molecular target: T6, GST-FLJ00011 PDZ domain 1 (Homo sapiens (Human)), Q9H5P4; assay: G' assay; note: key of the grades not given here
T6 chain: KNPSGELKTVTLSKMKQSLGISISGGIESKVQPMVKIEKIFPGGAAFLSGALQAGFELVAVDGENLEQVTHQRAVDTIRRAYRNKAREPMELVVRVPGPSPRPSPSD

[8] = molecular target: T7, GST-INADL PDZ domain 8 (Homo sapiens (Human)), Q8NI35; assay: G' assay; note: key of the grades not given here
T7 chain: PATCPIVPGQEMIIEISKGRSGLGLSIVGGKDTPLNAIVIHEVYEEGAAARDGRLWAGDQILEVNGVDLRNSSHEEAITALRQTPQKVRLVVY

[9] = molecular target: GST-BAI-1 Associated Protein PDZ domain 3 (Homo sapiens (Human)), Q96QZ7; assay: G' assay; note: key of the grades not given here
Sequence of GST-BAI-1 Associated Protein PDZ domain 3 (Homo sapiens (Human)), Q96QZ7 (Q96QZ7 other isoform, or with tags, fused parts or gaps): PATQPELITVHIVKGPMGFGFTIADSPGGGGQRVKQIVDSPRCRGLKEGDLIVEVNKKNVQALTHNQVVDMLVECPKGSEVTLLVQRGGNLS

[10] = molecular target: T8, GST-AIPC PDZ domain 1 (Homo sapiens (Human)), O15018; assay: G' assay; note: key of the grades not given here
T8 chain: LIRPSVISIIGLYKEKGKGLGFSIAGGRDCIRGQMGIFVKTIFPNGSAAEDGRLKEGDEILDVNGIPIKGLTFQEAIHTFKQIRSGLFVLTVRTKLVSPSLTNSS

[11] = molecular target: T9, GST-HEMBA 1003117 PDZ domain 1 (Homo sapiens (Human)), Q96JH8; assay: G' assay; note: key of the grades not given here
T9 chain: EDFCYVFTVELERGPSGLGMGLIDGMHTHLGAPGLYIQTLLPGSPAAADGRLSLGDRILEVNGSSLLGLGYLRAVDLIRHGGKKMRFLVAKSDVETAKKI

[12] = molecular target: T10, GST-MINT1 PDZ domain 2 (Mus musculus (Mouse)), B2RUJ5; assay: G' assay; note: key of the grades not given here
T10 chain: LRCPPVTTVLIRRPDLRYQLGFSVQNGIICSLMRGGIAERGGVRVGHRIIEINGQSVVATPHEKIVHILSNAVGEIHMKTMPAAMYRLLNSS

[13] = molecular target: T1, GST-KIAA0807(S) PDZ domain 1 (Homo …); assay: G' assay; note: key of the grades not given here
[14] = molecular target: T11, GST-TIP1 PDZ domain 1 (Table 9 insert) (Homo sapiens (Human)), O14907; assay: G' assay; note: key of the grades not given here
T11 chain: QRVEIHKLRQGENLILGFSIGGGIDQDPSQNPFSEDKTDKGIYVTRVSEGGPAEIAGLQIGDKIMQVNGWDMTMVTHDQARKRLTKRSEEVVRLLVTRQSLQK

[15] = molecular target: T2, GST-PTPL1 PDZ domain 2 (Homo sapiens …); assay: G' assay; note: key of the grades not given here
[16] = molecular target: T12, GST-KIAA1634 PDZ domain 2 (Homo sapiens (Human)), Q5TCQ9; assay: G' assay; note: key of the grades not given here
T12 chain: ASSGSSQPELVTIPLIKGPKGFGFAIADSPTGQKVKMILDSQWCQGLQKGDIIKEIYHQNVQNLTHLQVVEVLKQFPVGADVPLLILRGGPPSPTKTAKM

[17] = molecular target: T13, GST-MUPP1 PDZ domain 13 (Homo sapiens (Human)), O75970; assay: G' assay; note: key of the grades not given here
T13 chain: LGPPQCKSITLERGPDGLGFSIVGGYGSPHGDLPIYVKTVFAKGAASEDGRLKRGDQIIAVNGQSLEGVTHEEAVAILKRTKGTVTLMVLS

[18] = molecular target: GST-PIST PDZ domain 1 (Mus musculus (Mouse)), Q8BH60; assay: G' assay; note: key of the grades not given here
[19] = molecular target: GST-KIAA807 [GST: P08515]; assay: G' assay; note: key of the grades not given here
Sequence of GST-KIAA807 [GST: P08515] (P08515 whole entry, the tested form may be a part): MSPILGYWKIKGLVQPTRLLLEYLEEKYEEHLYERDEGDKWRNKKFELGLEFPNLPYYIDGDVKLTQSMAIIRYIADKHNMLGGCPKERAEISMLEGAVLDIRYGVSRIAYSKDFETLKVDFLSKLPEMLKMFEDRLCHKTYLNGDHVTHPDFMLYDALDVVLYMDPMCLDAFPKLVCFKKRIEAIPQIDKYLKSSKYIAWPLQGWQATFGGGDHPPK

[20] = molecular target: T14, GST-PTPL1 PDZ domain 4 (Homo sapiens (Human)), Q12923; assay: G' assay; note: key of the grades not given here
T14 chain: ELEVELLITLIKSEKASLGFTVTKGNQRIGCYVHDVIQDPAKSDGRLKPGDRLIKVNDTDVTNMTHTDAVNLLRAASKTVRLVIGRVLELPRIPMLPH

[21] = molecular target: GST-Atrophin-1 Interacting Protein PDZ domain 5 (Rattus norvegicus (Rat)), O88382; assay: G' assay; note: key of the grades not given here
Sequence of GST-Atrophin-1 Interacting Protein PDZ domain 5 (Rattus norvegicus (Rat)), O88382 (O88382 1128-1225): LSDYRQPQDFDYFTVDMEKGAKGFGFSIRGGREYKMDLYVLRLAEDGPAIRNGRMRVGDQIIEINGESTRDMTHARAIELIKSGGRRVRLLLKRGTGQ

[22] = molecular target: T15, GST-Syntrophin gamma 1 PDZ domain 1 (Homo sapiens (Human)), Q9NSN8; assay: G' assay; note: key of the grades not given here
T15 chain: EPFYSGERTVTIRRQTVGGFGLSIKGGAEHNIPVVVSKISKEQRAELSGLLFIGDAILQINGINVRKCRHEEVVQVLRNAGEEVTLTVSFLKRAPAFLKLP

[23] = molecular target: T16, GST-FLJ 10324 PDZ domain 1 [GST: P08515]; assay: G' assay; note: key of the grades not given here
T16 chain: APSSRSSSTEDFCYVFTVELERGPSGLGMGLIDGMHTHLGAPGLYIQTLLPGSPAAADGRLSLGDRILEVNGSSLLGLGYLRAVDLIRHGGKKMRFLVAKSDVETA

[24] = molecular target: GST-KIAA1634 PDZ domain 1 (Homo sapiens (Human)), Q5TCQ9; assay: G assay titration, PDZ 1 ug/ml
Sequence of GST-KIAA1634 PDZ domain 1 (Homo sapiens (Human)), Q5TCQ9 (Q5TCQ9 401-502): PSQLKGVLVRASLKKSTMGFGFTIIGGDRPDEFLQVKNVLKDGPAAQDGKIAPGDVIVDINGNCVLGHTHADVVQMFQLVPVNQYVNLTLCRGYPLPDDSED

[25] = molecular target: T17, GST-Atrophin-1 Interacting Protein PDZ domain 1 (Rattus norvegicus (Rat)), O88382; assay: G assay titration, PDZ 5 ug/ml
T17 sequence (O88382 408-511): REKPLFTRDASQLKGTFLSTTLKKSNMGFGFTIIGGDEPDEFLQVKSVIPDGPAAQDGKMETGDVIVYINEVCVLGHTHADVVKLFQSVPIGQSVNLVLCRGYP

[26] = molecular target: GST-DLG1 PDZ domains 1, 2 (Homo sapiens), Q12959; assay: G' assay; note: key of the grades not given here
[27] = molecular target: T17, GST-Atrophin-1 Interacting Protein PDZ …; assay: G' assay
[28] = molecular target: T18, GST-Shank 3 PDZ domain 1 (human (hypothetical, computer cloned)), Q9BYB0; assay: G' assay; note: key of the grades not given here
T18 chain: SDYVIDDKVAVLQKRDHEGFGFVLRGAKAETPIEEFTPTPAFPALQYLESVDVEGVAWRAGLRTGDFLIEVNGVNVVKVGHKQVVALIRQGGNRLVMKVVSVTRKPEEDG

[29] = molecular target: GST-PSD95 PDZ domains 1, 2, 3 (Homo sapiens), P78352; assay: G' assay; note: key of the grades not given here
Sequence of GST-PSD95 PDZ domains 1, 2, 3 (Homo sapiens), P78352 (P78352 62-395): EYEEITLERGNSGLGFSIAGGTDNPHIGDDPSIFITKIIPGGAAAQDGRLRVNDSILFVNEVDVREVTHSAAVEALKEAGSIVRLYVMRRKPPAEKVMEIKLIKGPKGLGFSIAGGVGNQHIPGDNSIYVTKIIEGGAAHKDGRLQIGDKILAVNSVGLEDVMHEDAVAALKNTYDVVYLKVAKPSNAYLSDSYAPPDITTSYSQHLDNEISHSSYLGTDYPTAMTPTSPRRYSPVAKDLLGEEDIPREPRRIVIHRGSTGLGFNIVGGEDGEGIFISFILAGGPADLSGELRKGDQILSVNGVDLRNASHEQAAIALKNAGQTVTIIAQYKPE

[30] = molecular target: T19, GST-EZRIN Binding Protein 50 PDZ domain 1 (Homo sapiens (Human)), O14745; assay: G' assay; note: key of the grades not given here
T19 chain: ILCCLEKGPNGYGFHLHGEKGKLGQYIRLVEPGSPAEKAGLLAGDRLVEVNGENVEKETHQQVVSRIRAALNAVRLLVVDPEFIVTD

[31] = molecular target: GST-KIAA1634 PDZ domain 1 (Homo sapiens (Human)), Q5TCQ9; assay: G' assay; note: key of the grades not given here
[32] = molecular target: T20, GST-NOS1 PDZ domain 1 (Homo sapiens (Human)), P29475; assay: G' assay; conditions: remark: other sources report otherwise; note: key of the grades not given here
T20 chain: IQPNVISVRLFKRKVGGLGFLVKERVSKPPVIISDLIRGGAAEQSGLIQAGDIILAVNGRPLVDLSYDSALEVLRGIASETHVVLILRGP

[33] = molecular target: T21, GST-EZRIN Binding Protein 50 PDZ domain 2 (Homo sapiens (Human)), O14745; assay: G' assay; note: key of the grades not given here
T21 chain: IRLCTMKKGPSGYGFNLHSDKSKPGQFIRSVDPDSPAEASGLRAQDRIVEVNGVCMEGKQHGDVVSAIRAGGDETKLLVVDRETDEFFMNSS

[34] = molecular target: T22, GST-NeDLG PDZ domains 1, 2, Q92796; assay: G' assay
T22 chain: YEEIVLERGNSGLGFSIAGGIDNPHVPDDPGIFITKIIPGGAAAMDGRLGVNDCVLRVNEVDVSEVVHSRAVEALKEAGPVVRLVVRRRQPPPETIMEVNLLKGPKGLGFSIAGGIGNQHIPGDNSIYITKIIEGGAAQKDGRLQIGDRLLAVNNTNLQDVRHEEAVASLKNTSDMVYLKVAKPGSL

[35] = molecular target: T23, GST-ZO-1 PDZ domain 1 (Rattus norvegicus (Rat)), A0A0G2; assay: G' assay; note: key of the grades not given here
T23 chain: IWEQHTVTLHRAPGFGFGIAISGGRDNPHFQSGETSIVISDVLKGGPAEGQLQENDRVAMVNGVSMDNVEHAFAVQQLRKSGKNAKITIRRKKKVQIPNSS

[36] = molecular target: T24, GST-NeDLG PDZ domain 3 (Mus musculus (Mouse)), P70175; assay: G' assay; note: key of the grades not given here
T24 chain: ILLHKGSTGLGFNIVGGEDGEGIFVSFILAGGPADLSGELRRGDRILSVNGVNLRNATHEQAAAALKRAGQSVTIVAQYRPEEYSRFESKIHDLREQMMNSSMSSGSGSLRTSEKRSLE

[37] = molecular target: GST-TAX IP2 PDZ domain 1 [GST: P08515]; assay: G assay titration, PDZ 1 ug/ml
Sequence of GST-TAX IP2 PDZ domain 1 [GST: P08515] (P08515 whole entry, the tested form may be a part): as the sequence (P08515 whole entry, the tested form may be a part) above

[38] = molecular target: GST-TAX IP2 PDZ domain 1 [GST: P08515]; assay: G' assay

B1: PTEN (peptide)
peptide: DSDPENEPFDEDQHTQITKV
modifications: not checked
Question: What does the source list for B1?
Answer: Kd [1]: 300 nM; Kd [2]: 300 nM; Kd [3]: 1500 nM; Classification [4]: 1 A450 class; Classification [5]: 1 A450 class; Classification [6]: 3 A450 class; Classification [7]: 3 A450 class; Classification [8]: 1 A450 class; Classification [9]: 2 A450 class; Classification [10]: 1 A450 class; Classification [11]: 1 A450 class; Classification [12]: 1 A450 class; Classification [13]: 5 A450 class; Classification [14]: 2 A450 class; Classification [15]: 4 A450 class; Classification [16]: 5 A450 class; Classification [17]: 5 A450 class; Classification [18]: 1 A450 class; Classification [19]: 5 A450 class; Classification [20]: 1 A450 class; Classification [21]: 2 A450 class; Classification [22]: 1 A450 class; Classification [23]: 1 A450 class

B2: Neuroligin (peptide)
peptide: TFAAGFNSTGLPHSTTRV
modifications: not checked
Question: Which Kd [24] does the source give for B2 here?
Answer: 100 nM

Question: What about the Kd [3] of the same binder?
Answer: 300 nM

Question: What about the Kd [25] of the same binder?
Answer: 250 nM

Question: What about the Classification [4] of the same binder?
Answer: 1 A450 class

Question: And the Classification [6]?
Answer: 2 A450 class

Question: What about the Classification [26] of the same binder?
Answer: 2 A450 class

Question: What about the Classification [27] of the same binder?
Answer: 2 A450 class

Question: And the Classification [8]?
Answer: 1 A450 class

Question: What about the Classification [28] of the same binder?
Answer: 3 A450 class

Question: And the Classification [29]?
Answer: 2 A450 class

Question: What about the Classification [30] of the same binder?
Answer: 2 A450 class

Question: And the Classification [31]?
Answer: 4 A450 class

Question: What about the Classification [32] of the same binder?
Answer: 1 A450 class

Question: And the Classification [13]?
Answer: 3 A450 class

Question: And the Classification [14]?
Answer: 1 A450 class

Question: And the Classification [33]?
Answer: 1 A450 class

Question: What about the Classification [15] of the same binder?
Answer: 1 A450 class

Question: And the Classification [34]?
Answer: 1 A450 class

Question: What about the Classification [16] of the same binder?
Answer: 2 A450 class

Question: What about the Classification [19] of the same binder?
Answer: 3 A450 class

Question: And the Classification [20]?
Answer: 1 A450 class

Question: What about the Classification [35] of the same binder?
Answer: 1 A450 class

Question: What about the Classification [36] of the same binder?
Answer: 1 A450 class

Question: And the Classification [23]?
Answer: 1 A450 class

B3: AKT1 (peptide)
peptide: VDSERRPHFPQFSYSASSTA
modifications: not checked
Question: What does the source list for B3?
Answer: Kd [37]: 2500 nM; Classification [38]: 4 A450 class; Classification [13]: 1 A450 class; Classification [19]: 1 A450 class
